Data taken from patent US20240327534A1 (HARPOON THERAPEUTICS, published 2024).
Where a chain is given by its changes, count along the chain named.

T1: human BCMA on BCMA expressing cell lines (human, UniProt Q02223 1-184)
T1 sequence: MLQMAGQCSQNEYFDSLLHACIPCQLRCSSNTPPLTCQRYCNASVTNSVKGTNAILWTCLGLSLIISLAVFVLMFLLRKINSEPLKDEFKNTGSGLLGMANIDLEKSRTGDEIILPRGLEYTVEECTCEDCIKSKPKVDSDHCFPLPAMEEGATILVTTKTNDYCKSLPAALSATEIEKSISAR

T2: human BCMA protein (human, UniProt Q02223 1-54, limits assumed)
T2 sequence: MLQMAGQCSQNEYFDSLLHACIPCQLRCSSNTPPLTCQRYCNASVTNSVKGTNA

B1: BCMA targeting trispecific protein 01F07 (other, not shown: large carriers; small tags and cut ends)
VHH: EVQLVESGGGLVQPGRSLTLSCAASTNIFSTSPMGWYRQAPGKQRELVAAIHGFSTIYADSVKGRFTISRDNAKNSIYLQMNSLRPEDTALYYCNKVPWGDYHPGNVYWGQGTQVTVSS
notes: trispecific; also called 01F07 TriTAC
B2: BCMA targeting trispecific protein 01G08 (other, not shown: large carriers; small tags and cut ends)
VHH: B1 VHH with F29Q, T31I, S55E, I57L
notes: trispecific; also called 01G08 TriTAC
B3: BCMA targeting trispecific protein 01H08 (other)
VHH: B1 VHH with F29M, T31I, I57V
notes: trispecific; also called 01H08 TriTAC; not shown: the C-terminal His6 follows those missing domains and is left out
B4: BCMA targeting trispecific protein 01H09 (other)
VHH: B1 VHH with F29M, T31I, F54N, I57L
notes: trispecific; not shown: the C-terminal His6 follows those missing domains and is left out
B5: BCMA targeting trispecific protein 01H10 (other)
VHH: B1 VHH with F29P, T31I, F54E, I57L, G105R
notes: trispecific; not shown: The C-terminal 6xHis tag is left out because it follows these missing domains
B6: BCMA targeting trispecific protein 01H11 (other, not shown: large carriers; small tags and cut ends)
VHH: B1 VHH with A23V, I57L
notes: trispecific
B7: BCMA targeting trispecific protein 02A04 (other)
VHH: B1 VHH with T31Q, F54K, I57L, G105S, Q111K
notes: as for B5
B8: BCMA targeting trispecific protein 02A05 (other, not shown: large carriers; small tags and cut ends)
VHH: B1 VHH with F29A, T31I, F54K, I57L
notes: trispecific
B9: BCMA targeting trispecific protein 02A07 (other, not shown: large carriers; small tags and cut ends)
VHH: B1 VHH with T31K, F54N, I57L, G105R, N106E
notes: trispecific
B10: BCMA targeting trispecific protein 02A08 (other, not shown: large carriers; small tags and cut ends)
VHH: B1 VHH with T31R, F54E, I57L, D101R
notes: trispecific
B11: BCMA targeting trispecific protein 02A11 (other)
VHH: B1 VHH with I28H, T31I, F54S, I57L, G105R, N106V
notes: trispecific; also called 02All; not shown: the C-terminal 6xHis tag follows those domains and is left out
B12: BCMA targeting trispecific protein 02B01 (other, not shown: large carriers; small tags and cut ends)
VHH: B1 VHH with T31N, F54R, I57L, G105R, Y108M
notes: trispecific
B13: BCMA targeting trispecific protein 02B04 (other)
VHH: B1 VHH with G105L
notes: trispecific; not shown: the C-terminal 6xHis tag follows those missing domains and is left out
B14: BCMA targeting trispecific protein 02B06 (other, not shown: large carriers; small tags and cut ends)
VHH: B1 VHH with T31N, I57L
notes: trispecific; also called 02B06 TriTAC
B15: BCMA targeting trispecific protein 02B07 (other)
VHH: B1 VHH with T31S, F54H, I57L, G105R, Y108T
notes: trispecific; not shown: anti-albumin domain, anti-CD3 domain and the linkers of the trispecific (TriTAC) format
B16: BCMA targeting trispecific protein 02B11 (other)
VHH: B1 VHH with F29V, T31I, F54D, I57L, G105R, Y108S
notes: as for B15
B17: BCMA targeting trispecific protein 02B12 (other, not shown: large carriers; small tags and cut ends)
VHH: B1 VHH with F29S, T31I, S55D, I57L, G105R
notes: trispecific
B18: BCMA targeting trispecific protein 02C01 (other)
VHH: B1 VHH with F29I, T31I, F54A, I57L
notes: trispecific; not shown: anti-albumin domain, anti-CD3 domain and the linkers of the trispecific; the C-terminal His6 that follows them is left out
B19: BCMA targeting trispecific protein 02C03 (other)
VHH: B1 VHH with F29A, T31I, F54S, I57L
notes: as for B4
B20: BCMA targeting trispecific protein 02C05 (other)
VHH: B1 VHH with T31E, S55T, I57L, G105R, Y108T
notes: trispecific; not shown: anti-albumin domain, anti-CD3 domain and the linkers of the trispecific (TriTAC) chain; the C-terminal 6xHis tag follows these missing domains and is left out
B21: BCMA targeting trispecific protein 02C06 (other, not shown: large carriers; small tags and cut ends)
VHH: B1 VHH with F54T, I57L
notes: trispecific
B22: BCMA targeting trispecific protein 02D06 (other, not shown: large carriers; small tags and cut ends)
VHH: B1 VHH with F29S, T31I, I57V, D101R, G105R
notes: trispecific
B23: BCMA targeting trispecific protein 02D11 (other)
VHH: B1 VHH with I28E, T31I, F54E, I57L
notes: as for B4
B24: BCMA targeting trispecific protein 02E03 (other)
VHH: B1 VHH with T31N, F54P, I57L, G105R, Y108T
notes: as for B20
B25: BCMA targeting trispecific protein 02E05 (other)
VHH: B1 VHH with T31R, F54I, I57L
notes: trispecific; also called 02E05 TriTAC; not shown: the C-terminal 6xHis tag follows those domains and is left out
B26: BCMA targeting trispecific protein 02E06 (other, not shown: large carriers; small tags and cut ends)
VHH: B1 VHH with T31D, I57F
notes: trispecific; also called 02E06 TriTAC
B27: BCMA targeting trispecific protein 02E09 (other, not shown: large carriers; small tags and cut ends)
VHH: B1 VHH with I28D, T31I, F54G, I57L, G105R, Y108A
notes: trispecific
B28: BCMA targeting trispecific protein 02F02 (other)
VHH: B1 VHH with T31K, F54S, I57L
notes: trispecific; also called 02F02 TriTAC; not shown: The C-terminal 6xHis tag is left out because it follows these missing domains
B29: BCMA targeting trispecific protein 02F03 (other, not shown: large carriers; small tags and cut ends)
VHH: B1 VHH with T31I, S32Y, F54S, I57L, G105K
notes: trispecific
B30: BCMA targeting trispecific protein 02F05 (other, not shown: large carriers; small tags and cut ends)
VHH: B1 VHH with T31V, F54N, I57L, D101K, G105R
notes: trispecific
B31: BCMA targeting trispecific protein 02F06 (other, not shown: large carriers; small tags and cut ends)
VHH: B1 VHH with T31I, S32T, F54E, I57L, D101R, G105R
notes: trispecific
B32: BCMA targeting trispecific protein 02F07 (other)
VHH: B1 VHH with F29E, T31I, I57L
notes: as for B4
B33: BCMA targeting trispecific protein 02F11 (other)
VHH: B1 VHH with F54T, I57L, G105R, Y108Q
notes: as for B15
B34: BCMA targeting trispecific protein 02F12 (other, not shown: large carriers; small tags and cut ends)
VHH: B1 VHH with F29E, T31I, F54T, I57L
notes: trispecific
B35: BCMA targeting trispecific protein 02G01 (other)
VHH: B1 VHH with T31I, S32N, S55D, I57L, G105R, Y108S
notes: as for B13
B36: BCMA targeting trispecific protein 02G05 (other, not shown: large carriers; small tags and cut ends)
VHH: B1 VHH with F29T, T31I, F54N, I57L
notes: trispecific
B37: BCMA targeting trispecific protein 02G06 (other, not shown: large carriers; small tags and cut ends)
VHH: B1 VHH with T31G, F54N, I57L
notes: trispecific
B38: BCMA targeting trispecific protein 02G07 (other, not shown: large carriers; small tags and cut ends)
VHH: B1 VHH with T31I, S32T, F54E, I57L, G105R, N106D
notes: trispecific
B39: BCMA targeting trispecific protein 02G08 (other, not shown: large carriers; small tags and cut ends)
VHH: B1 VHH with F29D, T31I, F54E, I57L, G105R, Y108T
notes: trispecific
B40: BCMA targeting trispecific protein 02G09 (other)
VHH: B1 VHH with T31D, I57L, G105R, Y108A
notes: as for B5
B41: BCMA targeting trispecific protein 02G11 (other, not shown: large carriers; small tags and cut ends)
VHH: B1 VHH with F29D, T31I, F54S, I57L, G105R, Y108T
notes: trispecific
B42: BCMA targeting trispecific protein 02H01 (other, not shown: large carriers; small tags and cut ends)
VHH: B1 VHH with T31K, F54S, I57L, G105R
notes: trispecific
B43: BCMA targeting trispecific protein 02H04 (other)
VHH: B1 VHH with T31V, F54N, I57L, G105R
notes: trispecific; not shown: the C-terminal 6xHis tag follows those domains and is left out
B44: BCMA targeting trispecific protein 02H05 (other)
VHH: B1 VHH with I28Q, T31I, F54K, I57L, G105R, Y108V
notes: as for B5
B45: BCMA targeting trispecific protein 02H06 (other)
VHH: B1 VHH with F29R, T31I, F54S, I57L, G105R, Y108V
notes: as for B5
B46: BCMA targeting trispecific protein 02H09 (other, not shown: large carriers; small tags and cut ends)
VHH: B1 VHH with T31R, F54S, I57L
notes: trispecific
B47: BCMA targeting trispecific protein 02H11 (other)
VHH: B1 VHH with F29T, T31I, F54E, I57L, G105R
notes: as for B43

target: T1, human BCMA on BCMA expressing cell lines; test: cell-based or functional assay

| Binder | TDCC EC50 (EJM cells) |
| --- | --- |
| B1 | 0.000702 nM |
| B2 | 0.00191 nM |
| B3 | 0.000341 nM |
| B4 | 0.00221 nM |
| B5 | 0.0352 nM |
| B6 | 0.00317 nM |
| B7 | 0.0382 nM |
| B8 | 0.00421 nM |
| B9 | 0.0279 nM |
| B10 | 0.0201 nM |
| B11 | 0.0606 nM |
| B12 | 0.0518 nM |
| B13 | 0.0113 nM |
| B14 | 0.00165 nM |
| B15 | 0.0142 nM |
| B16 | 0.0144 nM |
| B17 | 0.124 nM |
| B18 | 0.00155 nM |
| B19 | 0.00252 nM |
| B20 | 0.0162 nM |
| B21 | 0.00195 nM |
| B22 | 0.0428 nM |
| B23 | 0.00235 nM |
| B24 | 0.0165 nM |

| Binder | TDCC EC50 (EJM cells) |
| --- | --- |
| B25 | 0.00137 nM |
| B26 | 0.00157 nM |
| B27 | 0.0311 nM |
| B28 | 0.00136 nM |
| B29 | 0.0245 nM |
| B30 | 0.003 nM |
| B31 | 0.0193 nM |
| B32 | 0.00259 nM |
| B33 | 0.0152 nM |
| B34 | 0.00314 nM |
| B35 | 0.0108 nM |
| B36 | 0.00433 nM |
| B37 | 0.00339 nM |
| B38 | 0.0446 nM |
| B39 | 0.0286 nM |
| B40 | 0.0396 nM |
| B41 | 0.0238 nM |
| B42 | 0.0542 nM |
| B43 | 0.0599 nM |
| B44 | 0.0389 nM |
| B45 | 0.0319 nM |
| B46 | 0.00288 nM |
| B47 | 0.0775 nM |

target: T1, human BCMA on BCMA expressing cell lines; test: cell-based or functional assay; remark: another data set of the same source

| Binder | TDCC Jeko1 EC50 | TDCC MOLP-8 EC50 | TDCC OPM-2 EC50 |
| --- | --- | --- | --- |
| B1 | 0.0053 nM | 0.0015 nM | 0.0044 nM |
| B2 | 0.015 nM | 0.0025 nM | 0.0069 nM |
| B3 | 0.004 nM | 0.00094 nM | 0.0031 nM |
| B14 | 0.011 nM | 0.0028 nM | 0.0097 nM |
| B25 | 0.011 nM | 0.0033 nM | 0.012 nM |
| B26 | 0.0091 nM | 0.0024 nM | 0.0074 nM |
| B28 | 0.0082 nM | 0.0035 nM | 0.01 nM |

target: T2, human BCMA protein; test: affinity to human BCMA protein, method not stated

| Binder | Kd |
| --- | --- |
| B1 | 4.18 nM |
| B2 | 6.27 nM |
| B3 | 2.86 nM |
| B4 | 5.44 nM |
| B5 | 24.8 nM |
| B6 | 7.06 nM |
| B7 | 17.6 nM |
| B8 | 7.06 nM |
| B9 | 18.4 nM |
| B10 | 9.51 nM |
| B11 | 25.2 nM |
| B12 | 21.4 nM |
| B13 | 15.2 nM |
| B14 | 6.77 nM |
| B15 | 15.8 nM |
| B16 | 13.3 nM |
| B17 | 25.2 nM |
| B18 | 5.31 nM |
| B19 | 7.09 nM |
| B20 | 15.6 nM |
| B21 | 6.9 nM |
| B22 | 23.3 nM |
| B23 | 6.71 nM |
| B24 | 16.8 nM |

| Binder | Kd |
| --- | --- |
| B25 | 6.53 nM |
| B26 | 6.31 nM |
| B27 | 20.9 nM |
| B28 | 6.73 nM |
| B29 | 25.7 nM |
| B30 | 7.15 nM |
| B31 | 21.9 nM |
| B32 | 7.06 nM |
| B33 | 20 nM |
| B34 | 7.76 nM |
| B35 | 16.3 nM |
| B36 | 7.12 nM |
| B37 | 7.5 nM |
| B38 | 19.3 nM |
| B39 | 18 nM |
| B40 | 34.4 nM |
| B41 | 20.5 nM |
| B42 | 35.6 nM |
| B43 | 31.1 nM |
| B44 | 19.6 nM |
| B45 | 23.3 nM |
| B46 | 6.83 nM |
| B47 | 27.5 nM |
